# Measured values reported in patent publication US20260055369A1, “METHOD FOR GENERATING CELLS OF THE T CELL LINEAGE WITH ENGINEERING BROADLY REACTIVE HUMAN NOTCH LIGAND” (H. Lee Moffitt Cancer Center and Research Institute, Inc., priority 2022, published 2026).
# Columns and labels:
# Notch1 [1] = assay: U2OS luciferase reporter assay, ligands on streptavidin plates; type: cell-based, human; details: 50 nM immobilized
# Description: (§1) For U2OS reporter cells, approximately 5×10E5 cells were plated into 6-well plates (Falcon) and let to adhere overnight at 37° C., 5% CO2 in DMEM media (Cytiva). On day two, media was replaced with serum-free DMEM and cells transfected with luciferase vectors. Cationic lipoplexes were generated for 15 min at room temperature by mixing 10 μL of Lipofectamine 2000 (Invitrogen), 2.5 μg of Gal4-firefly luciferase reporter, and 50 ng of pRL-TK Renilla luciferase vector as internal control (ratio 1:5, Lipo:DNA). On day three, streptavidin plates were coupled with DLL4 ligands like described above using 10-fold serial dilutions starting at 50 nM, and transfected U2OS cells were detached with Trypsin-EDTA, washed with DPBS, and counted in the microscope. Twenty-thousand reporter cells were added to wells using 200 μL of DMEM media containing 2 μg/mL of doxycycline (Sigma) to induce Notch-Gal4 expression. Next, signaling plates were incubated for 24 hours at 37° C. and 5% CO2. On day four, luciferase firefly and Renilla signals were determined with Dual-Glo luciferase assay system (Promega) using a GloMax luminometer (Promega). A luminescence ratio firefly:Renilla was determined for every well and normalized to the signal of a non-related control protein (PA domain of RNF128). Notch activation is represented as the mean fold-change over the control±s.d. of three independent biological replicates.
# Target sequence in this assay (P46531 19-1664 limits assumed): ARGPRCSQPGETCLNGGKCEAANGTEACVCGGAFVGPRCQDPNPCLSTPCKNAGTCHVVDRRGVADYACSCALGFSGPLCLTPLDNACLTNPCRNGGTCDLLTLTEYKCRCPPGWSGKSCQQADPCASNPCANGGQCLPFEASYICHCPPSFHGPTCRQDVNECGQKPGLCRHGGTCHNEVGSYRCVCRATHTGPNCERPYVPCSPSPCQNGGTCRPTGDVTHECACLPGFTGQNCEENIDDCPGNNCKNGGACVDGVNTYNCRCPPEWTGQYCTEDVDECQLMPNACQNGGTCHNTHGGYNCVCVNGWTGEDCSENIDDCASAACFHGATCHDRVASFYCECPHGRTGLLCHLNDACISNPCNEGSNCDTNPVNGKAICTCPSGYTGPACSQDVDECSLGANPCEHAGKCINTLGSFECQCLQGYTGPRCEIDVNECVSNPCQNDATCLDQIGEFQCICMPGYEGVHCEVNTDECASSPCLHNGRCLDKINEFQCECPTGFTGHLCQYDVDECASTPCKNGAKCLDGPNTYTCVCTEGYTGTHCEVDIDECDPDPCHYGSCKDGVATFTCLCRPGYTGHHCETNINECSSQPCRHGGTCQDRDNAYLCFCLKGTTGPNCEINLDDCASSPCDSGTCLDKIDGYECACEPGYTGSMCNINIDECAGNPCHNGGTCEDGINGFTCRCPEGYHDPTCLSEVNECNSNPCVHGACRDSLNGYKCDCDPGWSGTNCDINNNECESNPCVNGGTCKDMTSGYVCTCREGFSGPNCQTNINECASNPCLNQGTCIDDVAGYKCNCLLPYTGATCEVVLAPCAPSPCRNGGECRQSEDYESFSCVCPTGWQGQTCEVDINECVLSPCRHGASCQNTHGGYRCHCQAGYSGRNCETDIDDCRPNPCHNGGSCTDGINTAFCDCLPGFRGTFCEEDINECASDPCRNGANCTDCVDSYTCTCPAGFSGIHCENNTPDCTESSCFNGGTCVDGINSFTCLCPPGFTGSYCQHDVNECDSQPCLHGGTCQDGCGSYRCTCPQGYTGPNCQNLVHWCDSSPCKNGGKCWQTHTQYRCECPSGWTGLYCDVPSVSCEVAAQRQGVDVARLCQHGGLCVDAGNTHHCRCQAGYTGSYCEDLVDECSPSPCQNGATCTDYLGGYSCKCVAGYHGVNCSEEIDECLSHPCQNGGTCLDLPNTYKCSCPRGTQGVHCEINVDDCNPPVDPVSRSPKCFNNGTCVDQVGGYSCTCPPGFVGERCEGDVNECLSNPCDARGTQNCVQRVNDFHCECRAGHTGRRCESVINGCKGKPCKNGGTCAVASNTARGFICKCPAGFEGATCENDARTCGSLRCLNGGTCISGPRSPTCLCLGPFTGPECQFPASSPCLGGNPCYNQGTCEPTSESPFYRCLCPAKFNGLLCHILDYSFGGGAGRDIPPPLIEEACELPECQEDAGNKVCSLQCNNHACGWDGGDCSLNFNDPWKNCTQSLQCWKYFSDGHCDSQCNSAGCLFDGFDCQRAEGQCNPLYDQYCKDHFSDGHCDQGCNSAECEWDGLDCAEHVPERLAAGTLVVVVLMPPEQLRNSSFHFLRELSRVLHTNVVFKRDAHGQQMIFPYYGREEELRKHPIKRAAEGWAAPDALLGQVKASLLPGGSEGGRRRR
# Target sequence in this assay (P46531 1665-1756 limits assumed): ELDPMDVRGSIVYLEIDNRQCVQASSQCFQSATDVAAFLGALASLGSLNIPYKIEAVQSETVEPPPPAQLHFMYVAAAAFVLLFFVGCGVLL
# Notch2 = assay: as above; type: cell-based, human; details: 50 nM immobilized
# Notch2, sequence (Q04721 221-530 limits assumed): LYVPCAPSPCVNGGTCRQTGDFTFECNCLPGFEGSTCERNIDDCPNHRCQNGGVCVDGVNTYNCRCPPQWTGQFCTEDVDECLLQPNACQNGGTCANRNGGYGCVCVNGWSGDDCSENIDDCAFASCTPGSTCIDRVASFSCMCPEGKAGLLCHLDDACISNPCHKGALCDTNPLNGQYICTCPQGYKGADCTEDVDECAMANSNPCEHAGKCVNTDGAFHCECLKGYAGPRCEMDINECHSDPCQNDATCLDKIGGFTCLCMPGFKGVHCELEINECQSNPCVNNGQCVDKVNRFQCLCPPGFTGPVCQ
# Description: as §1
# Notch1 [2] = assay: Notch activation with streptavidin-coated polystyrene beads (CHO-K1 N1-Gal4); type: cell-based; details: 25 μm beads, ratio 1:1 with reporter cells
# Description: Biotinylated WT DLL4 or Delta^MAX (26 μg) were coated in 1.33 mg of streptavidin-coated polystyrene beads for 1 hour at 4° C. in DPBS+0.1% BSA. The beads were washed three times with 500 μL of DPBS+0.1% BSA before and after coating. DLL4 pre-coated beads were counted in the microscope and 100 μL containing 30,000 beads combined in ratio 1:1 with 100 μL of α-MEM with CHO-K1 N1-Gal4 reporter cell lines in 96-well tissue culture plates. The plate was incubated for 24 hours at 37° C., 5% CO2, and Notch activation measure by flow cytometry. The data represent Notch activation as a function of mean fluorescent intensity±s.d. of three biological replicates.
# Target sequence in this assay (P46531 295-488 limits assumed): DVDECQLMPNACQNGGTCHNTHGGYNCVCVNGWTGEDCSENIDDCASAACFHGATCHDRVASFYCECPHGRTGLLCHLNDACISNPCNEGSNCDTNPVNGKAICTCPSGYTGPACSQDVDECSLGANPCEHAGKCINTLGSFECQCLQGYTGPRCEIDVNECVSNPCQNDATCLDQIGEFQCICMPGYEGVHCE
# CD8+ T cells = assay: Quantitative real-time PCR of activation markers in CD8+ T cells; type: cell-based, human; details: K32 loaded with 0.0125 μg/mL OKT3, over four days
# Description: Human CD8^+ T cells were co-cultured with K32-DLL4 cells for 96 hours and positively enriched by MACS column (Invitrogen Kit). Total RNA was isolated from CD8^+ T cells using TRIzol (Life Technologies). Reverse transcription reaction was performed using Verso cDNA Synthesis Kit (Thermo Scientific). Quantitative PCR reactions were prepared by using Bio-Rad SYBR green master mix and performed on an Applied Biosystems thermocycler (7900 HT). Relative expression was calculated using the ΔΔCt method and normalized to B2M levels. The data represent the mean quantity of mRNA (in-fold) for different T cell markers±s.e.m. of four independent biological replicates. Pair primers used were: […]
# Notch1 [3] = molecular target: T1, Notch1 (Homo sapiens, UniProt P46531); assay: Immunoblot of cleaved Notch1 in CD8+ T cells; type: cell-based; details: CD8+ T cells after 96 hours with K32 cells
# T1 construct: endogenous in cells; host or cells: primary human CD8+ T cells from PBMC
# T1 sequence (P46531 19-2555): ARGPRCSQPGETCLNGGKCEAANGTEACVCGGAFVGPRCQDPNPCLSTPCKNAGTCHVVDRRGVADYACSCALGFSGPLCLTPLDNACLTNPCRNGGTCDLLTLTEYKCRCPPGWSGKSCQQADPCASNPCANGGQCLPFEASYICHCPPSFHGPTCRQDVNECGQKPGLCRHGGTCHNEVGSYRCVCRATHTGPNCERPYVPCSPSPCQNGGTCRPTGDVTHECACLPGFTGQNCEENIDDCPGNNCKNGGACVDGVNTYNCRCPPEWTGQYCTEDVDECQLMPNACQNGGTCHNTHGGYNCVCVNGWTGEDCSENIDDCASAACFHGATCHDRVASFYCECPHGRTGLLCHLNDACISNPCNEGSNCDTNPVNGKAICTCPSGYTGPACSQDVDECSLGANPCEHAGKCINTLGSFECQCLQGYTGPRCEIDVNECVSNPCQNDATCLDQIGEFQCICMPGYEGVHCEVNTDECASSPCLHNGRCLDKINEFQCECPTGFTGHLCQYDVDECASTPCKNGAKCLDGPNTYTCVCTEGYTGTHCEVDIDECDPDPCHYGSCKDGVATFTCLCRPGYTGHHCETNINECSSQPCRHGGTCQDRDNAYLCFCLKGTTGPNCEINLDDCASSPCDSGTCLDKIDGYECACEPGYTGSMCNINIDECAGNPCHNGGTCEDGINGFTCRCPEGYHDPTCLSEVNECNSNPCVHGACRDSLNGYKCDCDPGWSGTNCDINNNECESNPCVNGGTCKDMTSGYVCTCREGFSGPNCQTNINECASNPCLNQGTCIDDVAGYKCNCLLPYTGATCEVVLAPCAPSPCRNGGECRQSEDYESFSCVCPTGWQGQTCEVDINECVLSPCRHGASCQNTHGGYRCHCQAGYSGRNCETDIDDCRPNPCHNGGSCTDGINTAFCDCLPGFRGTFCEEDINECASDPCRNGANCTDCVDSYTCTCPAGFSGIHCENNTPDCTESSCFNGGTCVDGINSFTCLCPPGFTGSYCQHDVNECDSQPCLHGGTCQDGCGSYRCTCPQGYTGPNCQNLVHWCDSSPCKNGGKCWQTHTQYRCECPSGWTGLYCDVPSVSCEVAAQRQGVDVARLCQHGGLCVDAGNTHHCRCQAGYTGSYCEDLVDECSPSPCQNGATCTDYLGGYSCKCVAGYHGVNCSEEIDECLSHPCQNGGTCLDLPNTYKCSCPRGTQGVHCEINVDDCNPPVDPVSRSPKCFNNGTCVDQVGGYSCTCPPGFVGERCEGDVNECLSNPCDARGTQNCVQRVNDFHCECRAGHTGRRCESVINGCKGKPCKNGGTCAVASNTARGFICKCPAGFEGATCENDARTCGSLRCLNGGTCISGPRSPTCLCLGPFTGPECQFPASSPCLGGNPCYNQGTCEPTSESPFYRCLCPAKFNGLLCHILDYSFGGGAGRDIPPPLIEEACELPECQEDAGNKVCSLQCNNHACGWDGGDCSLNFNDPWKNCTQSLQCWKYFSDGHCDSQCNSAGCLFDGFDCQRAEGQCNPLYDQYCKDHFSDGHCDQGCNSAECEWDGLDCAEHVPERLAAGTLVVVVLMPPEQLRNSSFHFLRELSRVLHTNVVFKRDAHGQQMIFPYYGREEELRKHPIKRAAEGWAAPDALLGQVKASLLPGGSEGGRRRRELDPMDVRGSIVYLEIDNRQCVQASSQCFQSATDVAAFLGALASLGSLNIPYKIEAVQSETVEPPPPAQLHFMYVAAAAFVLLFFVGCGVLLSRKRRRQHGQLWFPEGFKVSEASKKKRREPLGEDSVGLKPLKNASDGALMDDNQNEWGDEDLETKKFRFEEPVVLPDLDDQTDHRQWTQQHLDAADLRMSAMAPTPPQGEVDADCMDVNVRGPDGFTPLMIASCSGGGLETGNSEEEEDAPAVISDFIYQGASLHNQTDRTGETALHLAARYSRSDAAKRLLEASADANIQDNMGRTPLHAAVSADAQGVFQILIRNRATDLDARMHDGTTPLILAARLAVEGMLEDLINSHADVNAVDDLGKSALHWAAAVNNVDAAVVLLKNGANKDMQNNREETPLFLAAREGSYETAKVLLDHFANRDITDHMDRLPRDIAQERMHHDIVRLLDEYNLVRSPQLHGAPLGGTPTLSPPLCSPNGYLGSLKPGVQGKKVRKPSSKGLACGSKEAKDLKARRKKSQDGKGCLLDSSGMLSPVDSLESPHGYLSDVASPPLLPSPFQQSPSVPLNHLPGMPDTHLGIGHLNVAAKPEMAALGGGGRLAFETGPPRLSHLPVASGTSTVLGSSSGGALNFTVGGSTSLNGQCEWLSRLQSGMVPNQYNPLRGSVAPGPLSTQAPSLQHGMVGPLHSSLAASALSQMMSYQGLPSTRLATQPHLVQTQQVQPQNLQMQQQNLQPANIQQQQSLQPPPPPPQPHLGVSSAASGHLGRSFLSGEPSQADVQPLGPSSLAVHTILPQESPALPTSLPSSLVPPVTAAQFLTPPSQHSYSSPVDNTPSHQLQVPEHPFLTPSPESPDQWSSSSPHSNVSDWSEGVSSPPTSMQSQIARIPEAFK
# Excerpt: For detection of Notch activation in CD8^+ T cells, following co-culture with K32 cell lines, CD8^+ T cells were positively enriched by Magnisort Human CD8^+ T cell positive selection Kit (Invitrogen). Nuclear fraction was isolated using NE-PER Nuclear and Cytoplasmic extraction kit (ThermoFisher). Equal protein amounts of nuclear cell lysates were run on 4-20% gradient Tris-glycine gels (Novex-Invitrogen), transferred to PVDF membranes using an iBlot Gel Transfer Device (ThermoFisher), and immunoblotted with antibodies anti-cleaved Notch1 (Val1744 rabbit mAb, Cell Signaling Technology, 1:1,000), anti-Notch2 (D76A6 rabbit mAb, Cell Signaling Technology, 1:1,000), and anti-β Actin (mouse mAb, Sigma, 1:20,000). Secondary antibodies anti-IgG (anti-rabbit or anti-mouse, GE Healthcare, 1:5,000) conjugated to horseradish peroxidase (HRP) were used for detection of proteins using ECL Western Blot Substrate Reagent (Thermo Fisher Scientific). Images were acquired using a Chemidoc Imaging System and analyzed with Image-Lab software (Bio-Rad).
molecule,measurement,setting,value
Delta^MAX: engineered human DLL4 consensus variant with 10 mutations combining DLL4.v1 and DLL4.v2 mutations; sequence matches SEQ ID NO: 4/10 (protein) SSVFQLQLQEFINERGVLASGRPCEPGCRTFFRVCLKHFQAVVSPGPCTFGTVSTPVLGTNSFAVRDDSSGGGRNPLQLPLNFTWPGTFSLIIEAWHAPGDDLRPEALPPDALISKFAIQGSLAVGQNWLLDEQTSTLTRLRYSYRVICSDNYYGDNCSRLCKKRNDYFGHYVCQPDGNPSCLPGWTGEYCQQPICLSGCHEQNGYCSKPAECLCRPGWQGRLCNECIPHPGCRHGTCSTPWQCLCDEGWGGLYCDQDLNYCTHHSPCKNGATCRNSGPRSYTCTCRPGYTGVDCELELSECDSNPCRNGGSCKDQEDGYHCLCPPGYYGLHCEHSTLSCADSPCFNGGSCRERNQGANYACECPPNFTGSNCE,increase in Notch1 signaling vs WT DLL4,Notch1 [1],2 fold
same,increase in Notch2 signaling vs WT DLL4,Notch2,2.5 fold
same,reporter activity vs DLL4 microbeads,Notch1 [2],4.5 fold
same,Granzyme B mRNA level vs WT DLL4 or mock,CD8+ T cells,increased levels
same,Hes-4 (Notch target) expression vs WT DLL4 or mock,CD8+ T cells,elevated expression
same,IFNγ mRNA level vs WT DLL4 or mock,CD8+ T cells,increased levels
same,Notch1 activation (cleaved ICD) relative to WT DLL4,Notch1 [3],increased
